Data on one molecule can be found in publication PMC5750076 (2017).

For this experiment, the target named is mTORΔN-mLST8 mTORΔN (Homo sapiens, UniProt P42345). Nature of the experiment: kinase inhibition assay.

B1: PRAS40 114-256 (protein)
chain: not shown
The term Ki denotes the equilibrium dissociation constant of an inhibitor or competing ligand from its target. As for B1, the inhibitory constant (Ki) is approximately 52 µM.
